Paper PMC11020826

Molecular target: PYE-GFP (Arabidopsis) (UniProt Q9SN74)
Experiment: FRET or BRET; FRET-APB (acceptor photobleaching) in nuclei of transiently transformed tobacco leaf epidermis cells; GFP donor, mCherry acceptor; ß-estradiol-induced; n = 15 nuclei; negative control donor only

Chain of UniProt Q9SN74 (Q9SN74 whole entry): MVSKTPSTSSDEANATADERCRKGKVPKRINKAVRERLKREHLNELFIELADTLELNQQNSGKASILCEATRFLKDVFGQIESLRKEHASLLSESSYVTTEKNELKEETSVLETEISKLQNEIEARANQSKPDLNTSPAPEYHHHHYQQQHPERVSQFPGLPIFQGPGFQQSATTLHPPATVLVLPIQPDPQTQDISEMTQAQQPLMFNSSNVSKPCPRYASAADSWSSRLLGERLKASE

FRET efficiency: 3.5%
Substance: OLV-mCherry (natural protein)
